Assay results: patent US20030165887A1 (BURNHAM INSTITUTE, published 2003)

Columns and labels:
Assay in all cases: co-immunoprecipitation, transfected HEK293T cells, SDS-PAGE/immunoblot
Cardiak (RIP2) = target: T1, Cardiak (RIP2) (UniProt O43353 1-540, limits assumed)
T1 construct: also called RICK
Procedure: (§1) The TUCAN polypeptides were expressed by transient transfection in HEK293T cells together with epitope-tagged pro-caspase-9 or other proteins. […] Cell lysates were prepared from transfected cells and immunoprecipitations were performed using anti-Flag or anti-Myc antibodies, followed by SDS-PAGE/immunoblot analysis.

pro-caspase-10 = target: T2, pro-caspase-10 (UniProt Q92851 1-521, limits assumed)
T2 sequence (looked up): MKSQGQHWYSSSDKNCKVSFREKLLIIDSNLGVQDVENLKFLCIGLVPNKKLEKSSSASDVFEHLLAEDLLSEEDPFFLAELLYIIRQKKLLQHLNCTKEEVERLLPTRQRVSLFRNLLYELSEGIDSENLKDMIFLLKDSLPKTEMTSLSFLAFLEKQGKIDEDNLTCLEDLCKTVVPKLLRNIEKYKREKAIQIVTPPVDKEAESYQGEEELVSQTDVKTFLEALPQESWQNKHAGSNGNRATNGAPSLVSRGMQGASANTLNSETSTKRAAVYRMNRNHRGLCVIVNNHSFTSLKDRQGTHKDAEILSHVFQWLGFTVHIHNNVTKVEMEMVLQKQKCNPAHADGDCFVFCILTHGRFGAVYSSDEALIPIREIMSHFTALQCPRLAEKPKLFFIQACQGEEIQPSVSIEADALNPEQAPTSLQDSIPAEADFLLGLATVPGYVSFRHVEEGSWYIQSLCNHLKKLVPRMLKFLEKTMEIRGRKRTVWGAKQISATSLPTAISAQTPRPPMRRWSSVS
Procedure: as §1

pro-caspase-8 = pro-caspase-8 (UniProt Q14790 1-479, limits assumed)
Sequence of pro-caspase-8 (Q14790 whole entry): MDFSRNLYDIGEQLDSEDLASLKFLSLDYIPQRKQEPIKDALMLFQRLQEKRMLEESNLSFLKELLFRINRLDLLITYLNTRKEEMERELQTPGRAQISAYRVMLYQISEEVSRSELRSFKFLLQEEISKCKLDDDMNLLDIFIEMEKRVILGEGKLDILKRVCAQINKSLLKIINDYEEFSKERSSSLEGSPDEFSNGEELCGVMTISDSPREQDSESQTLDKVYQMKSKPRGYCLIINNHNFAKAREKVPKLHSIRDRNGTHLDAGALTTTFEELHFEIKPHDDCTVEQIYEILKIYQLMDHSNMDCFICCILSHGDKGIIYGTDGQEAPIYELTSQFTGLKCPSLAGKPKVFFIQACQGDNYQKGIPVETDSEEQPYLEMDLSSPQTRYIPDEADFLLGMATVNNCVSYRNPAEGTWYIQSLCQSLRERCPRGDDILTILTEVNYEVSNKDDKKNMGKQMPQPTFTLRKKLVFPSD
Procedure: as §1

Nod1 (CARD4) = target: T3, Nod1 (CARD4) (UniProt Q9Y239 1-953, limits assumed)
T3 construct: also called Nodl
T3 sequence (looked up): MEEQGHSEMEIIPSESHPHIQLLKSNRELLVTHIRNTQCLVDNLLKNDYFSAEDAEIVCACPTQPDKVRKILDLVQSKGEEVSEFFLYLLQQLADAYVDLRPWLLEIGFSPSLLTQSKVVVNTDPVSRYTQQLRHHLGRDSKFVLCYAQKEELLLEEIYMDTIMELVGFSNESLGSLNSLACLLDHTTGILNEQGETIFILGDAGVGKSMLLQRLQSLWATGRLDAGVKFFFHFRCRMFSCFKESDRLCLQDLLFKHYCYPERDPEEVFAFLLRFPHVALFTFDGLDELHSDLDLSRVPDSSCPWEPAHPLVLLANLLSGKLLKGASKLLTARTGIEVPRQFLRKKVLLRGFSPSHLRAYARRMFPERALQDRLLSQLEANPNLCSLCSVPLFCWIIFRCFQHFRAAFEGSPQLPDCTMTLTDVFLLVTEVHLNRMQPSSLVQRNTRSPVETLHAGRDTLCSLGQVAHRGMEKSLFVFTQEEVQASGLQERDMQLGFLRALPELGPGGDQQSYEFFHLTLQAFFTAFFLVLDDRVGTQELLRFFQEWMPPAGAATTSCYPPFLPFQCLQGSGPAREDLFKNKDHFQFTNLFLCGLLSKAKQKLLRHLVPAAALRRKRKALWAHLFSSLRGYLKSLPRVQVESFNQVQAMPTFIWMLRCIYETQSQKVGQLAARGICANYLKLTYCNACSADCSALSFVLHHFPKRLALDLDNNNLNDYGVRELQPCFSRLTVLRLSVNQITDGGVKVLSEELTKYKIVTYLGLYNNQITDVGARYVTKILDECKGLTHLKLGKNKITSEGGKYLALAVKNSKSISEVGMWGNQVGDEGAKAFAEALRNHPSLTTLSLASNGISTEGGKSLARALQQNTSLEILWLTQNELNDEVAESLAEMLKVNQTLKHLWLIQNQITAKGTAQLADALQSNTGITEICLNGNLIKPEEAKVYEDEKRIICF
Procedure: as §1

CARD9 = target: T4, CARD9 (UniProt Q9H257 1-536, limits assumed)
T4 sequence (looked up): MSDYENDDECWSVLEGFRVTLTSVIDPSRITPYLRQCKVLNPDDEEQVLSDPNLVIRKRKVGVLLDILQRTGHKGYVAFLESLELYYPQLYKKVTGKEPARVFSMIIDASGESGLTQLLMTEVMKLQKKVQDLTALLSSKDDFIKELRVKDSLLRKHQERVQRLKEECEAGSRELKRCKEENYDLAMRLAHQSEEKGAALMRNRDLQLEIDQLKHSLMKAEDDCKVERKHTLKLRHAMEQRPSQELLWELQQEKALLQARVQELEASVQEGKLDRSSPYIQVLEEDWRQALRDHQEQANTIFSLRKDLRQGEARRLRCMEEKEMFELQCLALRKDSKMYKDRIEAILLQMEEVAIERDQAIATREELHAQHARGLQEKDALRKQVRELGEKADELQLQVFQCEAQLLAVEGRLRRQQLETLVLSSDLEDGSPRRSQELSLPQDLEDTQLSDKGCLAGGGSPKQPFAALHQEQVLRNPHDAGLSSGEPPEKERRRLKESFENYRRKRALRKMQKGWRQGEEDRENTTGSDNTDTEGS
Procedure: as §1

CED4 = target: T5, CED4 (UniProt P30429 1-549, limits assumed)
T5 sequence (looked up): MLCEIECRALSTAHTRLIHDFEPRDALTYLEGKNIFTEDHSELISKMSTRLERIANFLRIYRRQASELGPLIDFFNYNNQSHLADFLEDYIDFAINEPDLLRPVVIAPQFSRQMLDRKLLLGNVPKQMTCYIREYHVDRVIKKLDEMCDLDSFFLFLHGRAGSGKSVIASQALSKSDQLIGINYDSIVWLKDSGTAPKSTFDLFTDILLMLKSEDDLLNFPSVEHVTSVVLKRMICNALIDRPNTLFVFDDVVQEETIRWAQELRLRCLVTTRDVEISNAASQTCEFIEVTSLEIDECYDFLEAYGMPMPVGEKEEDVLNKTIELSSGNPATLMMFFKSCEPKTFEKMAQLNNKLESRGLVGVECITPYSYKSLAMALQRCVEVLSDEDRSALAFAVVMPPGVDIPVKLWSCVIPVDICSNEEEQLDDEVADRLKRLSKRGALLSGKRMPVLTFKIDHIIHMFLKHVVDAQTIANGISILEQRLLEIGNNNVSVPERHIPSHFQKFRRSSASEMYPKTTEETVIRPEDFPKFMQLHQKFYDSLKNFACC
Procedure: as §1

Measured: binding result

T1 sequence (O43353 whole entry): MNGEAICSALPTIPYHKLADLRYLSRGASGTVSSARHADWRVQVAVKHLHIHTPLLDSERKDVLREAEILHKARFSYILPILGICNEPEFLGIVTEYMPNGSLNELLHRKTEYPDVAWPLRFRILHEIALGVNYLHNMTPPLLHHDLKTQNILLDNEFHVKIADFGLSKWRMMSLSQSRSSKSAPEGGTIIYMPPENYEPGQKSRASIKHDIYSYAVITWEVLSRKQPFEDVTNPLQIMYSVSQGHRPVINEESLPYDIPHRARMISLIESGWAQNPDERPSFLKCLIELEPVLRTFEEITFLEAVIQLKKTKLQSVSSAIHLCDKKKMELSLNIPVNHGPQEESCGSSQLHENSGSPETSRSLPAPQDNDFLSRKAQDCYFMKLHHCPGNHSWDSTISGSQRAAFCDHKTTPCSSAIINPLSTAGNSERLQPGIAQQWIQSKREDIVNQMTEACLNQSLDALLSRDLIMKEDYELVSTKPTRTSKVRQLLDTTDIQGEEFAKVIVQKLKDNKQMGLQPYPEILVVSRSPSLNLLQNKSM

B1: TUCAN (Tumor Up-regulated CARD-containing Antagonist of Caspase Nine), full-length (other)
chain: MMRQRQSHYCSVLFLSVNYLGGTFPGDICSEENQIVSSYASKVCFEIEEDYKNRQFLGPEGNVDVELIDKSTNRYSVWFPTAGWYLWSATGLGFLVRDEVTVTIAFGSWSQHLALDLQHHEQWLVGGPLFDVTAEPEEAVAEIHLPHFISLQGEVDVSWFLVAHFKNEGMVLEHPARVEPFYAVLESPSFSLMGILLRIASGTRLSIPITSNTLIYYHPHPEDIKFHLYLVPSDALLTKAIDDEEDRFHGVRLQTSPPMEPLNFGSSYIVSNSANLKVMPKELKLSYRSPGEIQHFSKFYAGQMKEPIQLEITEKRHGTLVWDTEVKPVDLQLVAASAPPPFSGAAFVKENHRQLQARMGDLKGVLDDLQDNEVLTENEKELVEQEKTRQSKNEALLSMVEKKGDLALDVLFRSISERDPYLVSYLRQQNL
notes: Full-length TUCAN expressed by transient transfection in HEK293T cells; also called full-length TUCAN; CARD-X
no binding: all assays above
